{"source": "the nanobody polyreactivity screen of Harvey et al. (2022)", "data": [{"test": "yeast display, Sf9 membrane polyspecificity reagent, FACS + sequencing; frameworks hold sequencing errors", "in_short": "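In a synthetic yeast display library (Saccharomyces cerevisiae BJ5465), nanobody expression was induced with galactose for 36–48 hours. FACS gates were set low and high (top ~1%) using anti-HA fluorescence for expression and streptavidin fluorescence for binding of the Sf9 membrane reagent. Each polyreactivity label is drawn from the gate of origin.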", "values": [{"sequence": "QVQLVESGGGLVQAGGSLRLSCSASGIIFIYYGMGWYRKAPGKERELVAAISRSGGRTYYADSVKGRFTISRDNANNTVYFHMNSLKPEDTAVYYCANTYTQTGFDYWGQGTQVTVSS", "polyreactivity (PSR sort gate)": "high polyreactivity"}, {"sequence": "QVQLVESGGLLVQAGGSLRLSCAASGRIFTHNATGWYRQAPGKERELVAAISYSGVSTYYADSVKGRFTISRDNAKNTVYLQMNSLKPEDTAVYYCARRYWYPDAFYRYDYWGQGTQVTVSS", "polyreactivity (PSR sort gate)": "low polyreactivity"}, {"sequence": "QVQLVESGGGLVQAGGSLRLSCAASGITFHRYAMRWYRQAPGKERELVAAINGGGGSTYYADSVKGRFTISRDNAKNTVYLQMNSLKPEDTAVYYCAAEVQNGVHIYDYWGQGTQVTVSS", "polyreactivity (PSR sort gate)": "high polyreactivity"}, {"sequence": "QVQLVESGVGLVQAGGSLRLSCAASGFTFAFYAMGWYRQAPGKERELVAAISRRGGSTTYADSVKGRFTISRDNAKYTVYLQMNSLKPEDTAVYYCNAVSTRNPGPDYYYWGQGTQVTVSS", "polyreactivity (PSR sort gate)": "high polyreactivity"}, {"sequence": "QVQLVESGGGLVQAGGSLRLSCAPSGSTFGFYAMGWYIQAPGKERELVAAISRGGSTNYADSVKGRFTISRDNAKNTVYLQMNSLKPEDTAVYYCAKAYHATSDYWGQGTQVTVSS", "polyreactivity (PSR sort gate)": "low polyreactivity"}, {"sequence": "QVQLVESGGGLVQAGGSLRLSCAASGRTFRQNVMGWYRQAPGKERELVAAITASGGNTYYADSVKGRFTISRDNAKNTVYLQMNSLKPEDTAVYYCNAVPYLAMDYWGQGTQVTVSS", "polyreactivity (PSR sort gate)": "high polyreactivity"}, {"sequence": "QVQLVESGGGLVQAGGSLRLSCAASGLTSYDYGMGWYRPAPGIERELVAAITWSGGSTYYADSVKGRFTISRDNAKNTVYLQMNSLKPEDTAVYYCAADTWGYGWYGYWGHGTQVTVSS", "polyreactivity (PSR sort gate)": "low polyreactivity"}, {"sequence": "QDQLVESGGGLVQAGGSLSLSCAASGRIFYWYVIGWYRQAPGKEREYVASISWSGGSTYYADSVKGRFTISRDNAKNTVYLQMNSLKPEDTAVYYCNAGSVYTVSLTGHPYDYWGQGTQVTVSS", "polyreactivity (PSR sort gate)": "low polyreactivity"}, {"sequence": "QVQLVESGGGLVEAGGSLRLSCADSGRTFGSYTMGWYRQAPGKEREWVAAITSGGRTNYADSVKGRFTISRDNAKNTVYLQMNSLKPEDTAVYYCAPGWRGGRYRYFAYDYWGQGTQVTVSS", "polyreactivity (PSR sort gate)": "high polyreactivity"}, {"sequence": "QVHLVESGGGLVHAGGSLRLSCAASGSTFDYYAMGWYRQEHGKERELVAAISSGGSTYYADSVKGSFTISRDNPKNTVYLQMNSRKPEDTAVYYCAAVYRGQFSRYDYWGQGTQVTVSS", "polyreactivity (PSR sort gate)": "low polyreactivity"}, {"sequence": "QVQLVESGGGLVQAGGSLRLSCAASGRIFGINVMGWYRQAPGKERELVAAISYRTGSTYYADSVKGRFTISRDNAKNTVYLQMNSLKPEDTAVYYCAAQRRIRTAWYDYWGQGTQVTVSS", "polyreactivity (PSR sort gate)": "high polyreactivity"}, {"sequence": "QVQLVESGGGLVQAGGSLRLSCAASGRTFKYYAMGWYRPAPGKERELVAAISYNGGSTFYADSVKGRFTISRDNAKNTVYLQMNSLKPEDTAVYYCAAGPRGTGKYYWGQGTQVTVSS", "polyreactivity (PSR sort gate)": "high polyreactivity"}, {"sequence": "QVQLVESGGGLVQAGGSLRLSCAASGRTIYYYAMGWYRQAPGKEREFVAAISWHGGSTYYADSVKGRFTISRDNAKNTVYLQMNSLKPEDTAVYYCAADIYLRGFHYDYWGQGTQVTVSS", "polyreactivity (PSR sort gate)": "low polyreactivity"}, {"sequence": "QVQLVESGGGLVQAGGSLRLSCAASGFTFYWYTMGWNRQAPGKERELVAAISRRGGSTSYADSVKGRFTISRDNAKNTVYLQMNSLKPEDTAVYYCAKTPGWTDYDYWGQGTQVTVSS", "polyreactivity (PSR sort gate)": "high polyreactivity"}, {"sequence": "QVQIVESGGGLVQAGGSLRLSCPASGGIFTKNAMGWYRQAPGKERELVAGISRTGGNTYYADSVKGRFTISRDNAKNNVYLQMKSLKPEDTAVYYCKALYGGPHRLRYDYWGQGTQVTVSS", "polyreactivity (PSR sort gate)": "low polyreactivity"}, {"sequence": "QVQLVESGGGLVQAGGSLRLSCAASGSTFSLYGMGWYRQAPGKERELVAAIRRSGGRTYYADSVKGRFTISRDNAKNTVYLQMNSLKPEDTAVYYCAKSVPRYYSKSGLAYEFDYWGQGTQVTVSS", "polyreactivity (PSR sort gate)": "low polyreactivity"}, {"sequence": "QVQLVESGGGLVQAGGSLRLSCAASGGTFENYAMGWYRQPPGKERELVAAISSGGSTNYADSVKGRFTISRDNAKNTVYLQMNSLKQEDTAVYYCARYRVWGSTGHKLFHDDYWGQGTQVTVSS", "polyreactivity (PSR sort gate)": "low polyreactivity"}, {"sequence": "QVQLVESGGGLVQAGGRLRLSCAASGFTIPYKAMGWYRQAPGKERELVAAISRSGTRTYYADSVKGRFTISRDNAKNTLYIQMNSLKPEDTAVYYCAKDTIGGASPHYYWGKGTQVTVSS", "polyreactivity (PSR sort gate)": "high polyreactivity"}, {"sequence": "QVQLVESGGGLVQAGGSLRLSCAASAITFFNNAMGWYRPATGKERELVADITYSGSTYYADSVKGRFTISRDNAQNSVYLQMNSLKPEDTAVYYCSAGHAYDYFVYYPDDYWGQGTQVTVSS", "polyreactivity (PSR sort gate)": "low polyreactivity"}, {"sequence": "QVQLVESGGGLVQAGGSLRLSCAASGSTFPVYTLGWYRQAPGKERELVAAISWRGTSTYADSVKGRFTISRDNGKNNVYLQMNRLIPEDTAVYYCAAGDTRGMDYWGQGTQVTVSS", "polyreactivity (PSR sort gate)": "high polyreactivity"}, {"sequence": "QVQLVESGGGLVQAGGSLRLSCAASGSTFTFNAMVWYRQAPGKERELVAAITTSAGSTYYADSVKGRFTISRDNAKNTVYLQMSSLKPEDTAVYYCAARYVPPWGRRYYYWGQGTQVTVSS", "polyreactivity (PSR sort gate)": "high polyreactivity"}, {"sequence": "QVQLVESGGGLVQAGGSLRLSCAASGRTFAINAMGWYRQAPGKERELVADITTDGSTYYADSVKGRFTISRDNAKNTVYLQMNSLKPEDTAVYYCATDSLDYFIRFKQFGYWGQGTQVTVSS", "polyreactivity (PSR sort gate)": "low polyreactivity"}]}]}
